Assay [1] addresses human insulin receptor (hIR) (human) (UniProt P06213). In words: cell-based or functional assay.
The target of assay [2] is human IR-B overexpressed on NIH 3T3 mouse fibroblast cells (human) (UniProt P06213). As to the kind of experiment: cell-based or functional assay.
Assay [3] concerns the target solubilised immuno-captured human IR (isoform B) (human) (UniProt P06213).
The target is the same in assay [4]. As to the kind of experiment: competition binding on human IR-B (FIG. 2); reference PTM-free sCon-Ins G1.
Assay [5] addresses human insulin receptor (hIR) (human) (UniProt P06213). In words: binding to hIR, assay not described at this place; reference human insulin.

For the substance “B10E, B20 biphenyl DOI analogue (ligand)”, in assay [1], the fold higher potency than N10E, B20Y DOI turned out to be 3 fold; the fold increase of the potency of DOI was 100 fold; the percent of the potency of human insulin came out at 10%.

Substance hIns[TyrB15, TyrB20, DOI] (ligand) came in with a fold more active than hIns[DOI], Akt phosphorylation assay in assay [2] of 5 fold. Further, the fold increased potency in hIR activation (against DOI) in assay [1] was found to be 5 fold.

In assay [3], sCon-Ins G1 (ligand) had a fold less active than hIns of 30 fold and a log [IC50 (nM)] of 1.24 log nM. Further, the fold more active than the PTM-free analogue in assay [4] is 4 fold.

Regarding Con-Ins G1 (ligand), the fold less affinity than human insulin in assay [5] was 30 fold.

With “DOI analogue with B10 Glu and B20 Tyr (ligand)”, the fold increase in potency compared to B20 Tyr alone in assay [1] was determined as 5 fold.

Substance B20 Tyr DOI analogue (ligand) displayed a fold increased potency in hIR activation (against DOI) in assay [1] of 5 fold.

These data come from patent US20220340636A1.
